Measured values published in US8461305B2, “L-fucose α1→6 specific lectin” (J-Oil Mills, Inc., priority 2008, dated 2013).

How the values were obtained:
glycoproteins = assay: hemagglutinating inhibition test with glycoproteins (sugar binding specificity); assay type: cell-based
Source text: (§1) The sugar binding specificity of lectin also can be confirmed by using erythrocytes that can be specifically agglutinated by the lectin to investigate the sugar type that may inhibit the agglutination of the erythrocytes and the concentration thereof.
(§2) Various monosaccharides, oligosaccharides, and polysaccharides shown in Table 2 and glycoproteins shown in Table 3 were subjected to hemagglutinating inhibition test to evaluate PTL of Example 1 and the SRL of Example 2 with regard to the sugar binding specificity.
(§3) On a 96 well U-bottom microtiter plate, double dilution series of 10 μl of monosaccharide, oligosaccharide, polysaccharide, and glycoprotein solutions were prepared. Then, lectin solution adjusted in advance to have titer 4 was added in an amount of 10 μl to the respective wells. Then, the plate was subjected to a still-standing at a room temperature for one hour for sensitization. Then, 10 μl of 4%-red blood cell suspension was added to the respective wells and the plate was further subjected to a still-standing at a room temperature for one hour. […] The lowest concentration showing the inhibition was assumed as the minimum inhibition concentration. The lower the minimum inhibition concentration is, the higher the specificity to lectin is.
(§4) For comparison, the sugar binding specificity was evaluated using the following commercially-available lectins: Comparison Example 1: AAL (SEIKAGAKU BIOBUSINESS CORPORATION—J-OIL MILLS, Inc.), Comparison Example 2: AOL (TOKYO CHEMICAL INDUSTRY CO., LTD.—Gekkeikan Sake Company, Ltd.), Comparison Example 3: LCA (SEIKAGAKU BIOBUSINESS CORPORATION—J-OIL MILLS, Inc.), and Comparison Example 4: PSA (SEIKAGAKU BIOBUSINESS CORPORATION—J-OIL MILLS, Inc.).

[1] = hemagglutinating inhibition test with sugars (sugar binding specificity); assay type: cell-based
Source text: as §1, §2, §3, §4

[2] = inhibitor: Bovine blood serum albumin
[3] = inhibitor: Human immune globulin A
[4] = inhibitor: Human immune globulin G
[5] = inhibitor: α1-acidic glycoprotein
[6] = inhibitor: N-Acetylneuraminic acid
[7] = inhibitor: N-acetylgalactosamine
[8] = inhibitor: N-glycolylneuraminic acid

Row | Molecule | minimum inhibition concentration of hemagglutination (glycoproteins; inhibitor: Asialofetuin) [μl/ml] | minimum inhibition concentration of hemagglutination (glycoproteins; inhibitor: Asialomucin (pig)) [μl/ml] | minimum inhibition concentration of hemagglutination (glycoproteins; [2]) [μl/ml] | minimum inhibition concentration of hemagglutination (glycoproteins; inhibitor: Casein) [μl/ml] | minimum inhibition concentration of hemagglutination (glycoproteins; inhibitor: Fetuin) [μl/ml] | minimum inhibition concentration of hemagglutination (glycoproteins; [3]) [μl/ml] | minimum inhibition concentration of hemagglutination (glycoproteins; [4]) [μl/ml] | minimum inhibition concentration of hemagglutination (glycoproteins; inhibitor: Lactoferrin) [μl/ml] | minimum inhibition concentration of hemagglutination (glycoproteins; inhibitor: Mucin (bovine)) [μl/ml] | minimum inhibition concentration of hemagglutination (glycoproteins; inhibitor: Mucin (pig)) [μl/ml] | minimum inhibition concentration of hemagglutination (glycoproteins; inhibitor: Ribonuclease) [μl/ml] | minimum inhibition concentration of hemagglutination (glycoproteins; inhibitor: Thyroglobulin) [μl/ml] | minimum inhibition concentration of hemagglutination (glycoproteins; inhibitor: Transferrin) [μl/ml] | minimum inhibition concentration of hemagglutination (glycoproteins; [5]) [μl/ml] | minimum inhibition concentration of hemagglutination ([1]; inhibitor: Fructose) [mM] | minimum inhibition concentration of hemagglutination ([1]; inhibitor: Galactose) [mM] | minimum inhibition concentration of hemagglutination ([1]; inhibitor: Glucose) [mM] | minimum inhibition concentration of hemagglutination ([1]; inhibitor: L-fucose) [mM] | minimum inhibition concentration of hemagglutination ([1]; inhibitor: Lactose) [mM] | minimum inhibition concentration of hemagglutination ([1]; inhibitor: Maltose) [mM] | other results
1 | Lens culinaris agglutinin (protein) chain 1: TETTSFSITKFSPDQKNLIFQGDGYTTKGKLTLTKAVKSTVGRALYSTPIHIWDRDTGNVANFVTSFTFVIDAPSSYNVADEFTFFIAPVDTKPQTGGGYLGVFNSKEYDKTSQTVAVEFDTFYNAAWDPSNKERHIGIDVNSIKSVNTKSWNLQNGERANVVIAFNAATNVLTVTLTYP chain 2: VTSYTLNEVVPLKDVVPEWVRIGFSATTGAEFAAHEVHSWSFHSELGGTSSS | 250 | >250 | >250 | >250 | >250 | >250 | >250 | >250 | >250 | >250 | >250 | 62.5 | >250 | >250 | >100 | >100 | >100 | >100 | >6 | 100 | minimum inhibition concentration of hemagglutination ([1]; inhibitor: Mannose): 50 mM; minimum inhibition concentration of hemagglutination ([1]; inhibitor: Melibiose): >100 mM; minimum inhibition concentration of hemagglutination ([1]; inhibitor: Metyl α-mannoside): 50 mM; minimum inhibition concentration of hemagglutination [1, 6]: >100 mM; minimum inhibition concentration of hemagglutination [1, 7]: >100 mM; minimum inhibition concentration of hemagglutination ([1]; inhibitor: N-acetylglucosamine): >100 mM; minimum inhibition concentration of hemagglutination [1, 8]: >100 mM; minimum inhibition concentration of hemagglutination ([1]; inhibitor: Raffinose): >100 mM; minimum inhibition concentration of hemagglutination ([1]; inhibitor: Rhamnose): >100 mM; minimum inhibition concentration of hemagglutination ([1]; inhibitor: Serial lactose): >6 mM; minimum inhibition concentration of hemagglutination ([1]; inhibitor: Sucrose): >100 mM; minimum inhibition concentration of hemagglutination ([1]; inhibitor: Xylose): >100 mM
2 | Pisum sativum agglutinin (protein) TETTSFLITKFSPDQQNLIFQGDGYTTKEKLTLTKAVKNTVGRALYSSPIHIWDRETGNVANFVTSFTFVINAPNSYNVADGFTFFIAPVDTKPQTGGGYLGVFNSAEYDKTTQTVAVEFDTFYNAAWDPSNRDRHIGIDVNSIKSVNTKSWKLQNGEEANVVIAFNAATNVLTVSLTYPNSLEEENVTSYTLSDVVSLKDVVPEWVRIGFSATTGAEYAAHEVLSWSFHSELSGTSSSKQAADA | >250 | >250 | >250 | >250 | >250 | >250 | >250 | >250 | >250 | >250 | >250 | 62.5 | >250 | >250 | >100 | >100 | >100 | >100 | >6 | >100 | minimum inhibition concentration of hemagglutination ([1]; inhibitor: Mannose): 50 mM; minimum inhibition concentration of hemagglutination ([1]; inhibitor: Melibiose): >100 mM; minimum inhibition concentration of hemagglutination ([1]; inhibitor: Metyl α-mannoside): 50 mM; minimum inhibition concentration of hemagglutination [1, 6]: >100 mM; minimum inhibition concentration of hemagglutination [1, 7]: >100 mM; minimum inhibition concentration of hemagglutination ([1]; inhibitor: N-acetylglucosamine): >100 mM; minimum inhibition concentration of hemagglutination [1, 8]: >100 mM; minimum inhibition concentration of hemagglutination ([1]; inhibitor: Raffinose): >100 mM; minimum inhibition concentration of hemagglutination ([1]; inhibitor: Rhamnose): >100 mM; minimum inhibition concentration of hemagglutination ([1]; inhibitor: Serial lactose): >6 mM; minimum inhibition concentration of hemagglutination ([1]; inhibitor: Sucrose): >100 mM; minimum inhibition concentration of hemagglutination ([1]; inhibitor: Xylose): >100 mM
3 | Aleuria aurantia lectin (protein) PTEFLYTSKIAAISWAATGGRQQRVYFQDLNGKIREAQRGGDNPWTGGSSQNVIGEAKLFSPLAAVTWKSAQGIQIRVYCVNKDNILSEFVYDGSKWITGQLGSVGVKVGSNSKLAALQWGGSESAPPNIRVYYQKSNGSGSSIHEYVWSGKWTAGASFGSTVPGTGIGATAIGPGRLRIYYQATDNKIREHCWDSNSWYVGGFSASASAGVSIAAISWGSTPNIRVYWQKGREELYEAAYGGSWNTPGQIKDASRPTPSLPDTFIAANSSGNIDISVFFQASGVSLQQWQWISGKGWSIGAVVPTGTPAGW | >250 | 31.3 | >250 | >250 | >250 | >250 | >250 | >250 | >250 | 15.6 | >250 | 125 | >250 | >250 | 25 | >100 | >100 | 0.391 | >6 | >100 | minimum inhibition concentration of hemagglutination ([1]; inhibitor: Mannose): 50 mM; minimum inhibition concentration of hemagglutination ([1]; inhibitor: Melibiose): >100 mM; minimum inhibition concentration of hemagglutination ([1]; inhibitor: Metyl α-mannoside): >100 mM; minimum inhibition concentration of hemagglutination [1, 6]: >100 mM; minimum inhibition concentration of hemagglutination [1, 7]: >100 mM; minimum inhibition concentration of hemagglutination ([1]; inhibitor: N-acetylglucosamine): >100 mM; minimum inhibition concentration of hemagglutination [1, 8]: >100 mM; minimum inhibition concentration of hemagglutination ([1]; inhibitor: Raffinose): >100 mM; minimum inhibition concentration of hemagglutination ([1]; inhibitor: Rhamnose): >100 mM; minimum inhibition concentration of hemagglutination ([1]; inhibitor: Serial lactose): >6 mM; minimum inhibition concentration of hemagglutination ([1]; inhibitor: Sucrose): >100 mM; minimum inhibition concentration of hemagglutination ([1]; inhibitor: Xylose): >100 mM
